# Data: the supplement of paper PMC9112550, “Optimization of the antimicrobial peptide Bac7 by deep mutational scanning” (BMC Biology, 2022)
# System: Escherichia coli TOP10
# Assay: shrunken log2 fold change of peptide-encoding DNA abundance (4.5 h post-induction vs induction); higher = less antimicrobial activity (less host growth inhibition)
# Conditions: time post-induction: 4.5 h; library: site-saturation at positions 5, 18, 19, 20
# 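Also: peptides expressed intracellularly from a pBAD plasmid library in pooled LB shake-flask culture, induced with 0.3% L-arabinose, DNA abundance read by NGS, three biological replicates, DESeq2 with apeglm shrinkage.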
row,Sequence,shrunken log2 fold change
1,RRIRPRPPRLPRPRPRPELTPRP,0.537
2,RRIRFRPPRLPRPRPRPKQSPRP,0.328
3,RRIRGRPPRLPRPRPRPHWIPRP,-0.304
4,RRIRYRPPRLPRPRPRPCRYPRP,-0.212
5,RRIRARPPRLPRPRPRPEFPPRP,0.962
6,RRIRVRPPRLPRPRPRPNHLPRP,-0.694
7,RRIRYRPPRLPRPRPRPPIIPRP,-0.148
8,RRIRYRPPRLPRPRPRPYPPPRP,-0.673
9,RRIRCRPPRLPRPRPRPVEEPRP,-0.0384
10,RRIRCRPPRLPRPRPRPIFGPRP,-0.0692
11,RRIRVRPPRLPRPRPRPATDPRP,0.132
12,RRIRPRPPRLPRPRPRPVELPRP,-0.0271
13,RRIRARPPRLPRPRPRPGKVPRP,0.0119
14,RRIRYRPPRLPRPRPRPFQDPRP,-0.139
15,RRIRSRPPRLPRPRPRPEHSPRP,-0.182
16,RRIRWRPPRLPRPRPRPEHIPRP,-0.14
17,RRIRERPPRLPRPRPRPPIDPRP,0.0361
18,RRIRRRPPRLPRPRPRPHAQPRP,0.0722
19,RRIRTRPPRLPRPRPRPHYFPRP,-0.914
20,RRIRLRPPRLPRPRPRPKVLPRP,-0.128
21,RRIRQRPPRLPRPRPRPEGQPRP,-0.0666
22,RRIRERPPRLPRPRPRPVELPRP,-0.0276
23,RRIRMRPPRLPRPRPRPEACPRP,3.9
24,RRIRGRPPRLPRPRPRPRDCPRP,1.11
25,RRIRMRPPRLPRPRPRPHVEPRP,0.00707

row,Sequence,shrunken log2 fold change
1,RRIRKRPPRLPRPRPRPEQEPRP,0.408
2,RRIRMRPPRLPRPRPRPTMPPRP,0.174
3,RRIRERPPRLPRPRPRPRAFPRP,0.189
4,RRIRNRPPRLPRPRPRPPRFPRP,0.441
5,RRIRYRPPRLPRPRPRPYPIPRP,-0.376
6,RRIRYRPPRLPRPRPRPCGKPRP,-0.0542
7,RRIRCRPPRLPRPRPRPQFNPRP,-0.98
8,RRIRWRPPRLPRPRPRPNEIPRP,0.0563
9,RRIRIRPPRLPRPRPRPRYVPRP,-0.45
10,RRIRIRPPRLPRPRPRPCFLPRP,-0.544
11,RRIRHRPPRLPRPRPRPTEVPRP,-0.0182
12,RRIRDRPPRLPRPRPRPQIFPRP,-0.00965
13,RRIRVRPPRLPRPRPRPTKVPRP,-0.341
14,RRIRTRPPRLPRPRPRPIDVPRP,-0.0217
15,RRIRMRPPRLPRPRPRPWANPRP,-0.0525
16,RRIRWRPPRLPRPRPRPHRQPRP,-0.165
17,RRIRTRPPRLPRPRPRPFAKPRP,-0.0867
18,RRIRWRPPRLPRPRPRPNPMPRP,-0.176
19,RRIRGRPPRLPRPRPRPYGRPRP,0.047
20,RRIRTRPPRLPRPRPRPERWPRP,0.354
21,RRIRERPPRLPRPRPRPECSPRP,-0.0948
22,RRIRCRPPRLPRPRPRPDSMPRP,-0.0886
23,RRIRLRPPRLPRPRPRPDMYPRP,-0.0404
24,RRIRPRPPRLPRPRPRPHIKPRP,-0.454
25,RRIRWRPPRLPRPRPRPEYLPRP,-0.0854

row,Sequence,shrunken log2 fold change
1,RRIRVRPPRLPRPRPRPRRTPRP,0.115
2,RRIRNRPPRLPRPRPRPWFMPRP,0.0336
3,RRIRKRPPRLPRPRPRPRQRPRP,1.57
4,RRIRHRPPRLPRPRPRPYIIPRP,-0.855
5,RRIRIRPPRLPRPRPRPSNIPRP,-0.207
6,RRIRDRPPRLPRPRPRPNAQPRP,0.325
7,RRIRSRPPRLPRPRPRPESWPRP,0.762
8,RRIRFRPPRLPRPRPRPCMWPRP,-0.258
9,RRIRHRPPRLPRPRPRPDLTPRP,-0.000777
10,RRIRHRPPRLPRPRPRPRRMPRP,0.254
11,RRIRCRPPRLPRPRPRPWNMPRP,-0.316
12,RRIRPRPPRLPRPRPRPFVVPRP,-0.233
13,RRIRIRPPRLPRPRPRPIYEPRP,-0.107
14,RRIRRRPPRLPRPRPRPVISPRP,0.104
15,RRIRLRPPRLPRPRPRPRIVPRP,-0.175
16,RRIRWRPPRLPRPRPRPLQGPRP,-0.21
17,RRIRKRPPRLPRPRPRPLLTPRP,0.652
18,RRIRWRPPRLPRPRPRPQKFPRP,-0.0956
19,RRIRKRPPRLPRPRPRPTWDPRP,0.289
20,RRIRHRPPRLPRPRPRPDHIPRP,-0.336
21,RRIRERPPRLPRPRPRPRGVPRP,0.309
22,RRIRNRPPRLPRPRPRPGRQPRP,0.0171
23,RRIRTRPPRLPRPRPRPCIVPRP,-0.164
24,RRIRSRPPRLPRPRPRPEFCPRP,0.132
25,RRIRYRPPRLPRPRPRPKRFPRP,0.00705

row,Sequence,shrunken log2 fold change
1,RRIRHRPPRLPRPRPRPKFIPRP,-0.192
2,RRIRPRPPRLPRPRPRPLGYPRP,-0.0805
3,RRIRLRPPRLPRPRPRPWMEPRP,0.00489
4,RRIRGRPPRLPRPRPRPLFPPRP,0.406
5,RRIRGRPPRLPRPRPRPIPLPRP,0.16
6,RRIRCRPPRLPRPRPRPDHSPRP,-0.184
7,RRIRERPPRLPRPRPRPYGFPRP,-0.382
8,RRIRMRPPRLPRPRPRPFYDPRP,-0.12
9,RRIRIRPPRLPRPRPRPPPCPRP,0.0616
10,RRIRKRPPRLPRPRPRPVVNPRP,0.000998
11,RRIRMRPPRLPRPRPRPWEFPRP,0.0443
12,RRIRARPPRLPRPRPRPEKTPRP,0.38
13,RRIRMRPPRLPRPRPRPQIEPRP,0.277
14,RRIRDRPPRLPRPRPRPMDWPRP,0.0545
15,RRIRARPPRLPRPRPRPHTIPRP,-0.734
16,RRIRLRPPRLPRPRPRPNNRPRP,-0.79
17,RRIRQRPPRLPRPRPRPNTYPRP,-1.07
18,RRIRCRPPRLPRPRPRPFYEPRP,-0.741
19,RRIRFRPPRLPRPRPRPTWIPRP,-0.222
20,RRIRPRPPRLPRPRPRPEDTPRP,0.174
21,RRIRWRPPRLPRPRPRPSYMPRP,-0.502
22,RRIRCRPPRLPRPRPRPQTMPRP,-0.349
23,RRIRIRPPRLPRPRPRPLMWPRP,-0.115
24,RRIRGRPPRLPRPRPRPGHNPRP,0.0636
25,RRIRTRPPRLPRPRPRPHWHPRP,-0.576

row,Sequence,shrunken log2 fold change
1,RRIRIRPPRLPRPRPRPRKLPRP,-0.529
2,RRIRRRPPRLPRPRPRPKYIPRP,-0.135
3,RRIRCRPPRLPRPRPRPGDPPRP,0.132
4,RRIRYRPPRLPRPRPRPTNGPRP,-0.126
5,RRIRWRPPRLPRPRPRPVSHPRP,-0.0115
6,RRIRMRPPRLPRPRPRPYAKPRP,0.00938
7,RRIRRRPPRLPRPRPRPREDPRP,0.811
8,RRIRNRPPRLPRPRPRPEDLPRP,-0.00079
9,RRIRQRPPRLPRPRPRPTTAPRP,-0.00139
10,RRIRNRPPRLPRPRPRPDNKPRP,-1.35
11,RRIRMRPPRLPRPRPRPVVGPRP,0.448
12,RRIRARPPRLPRPRPRPENGPRP,-0.0341
13,RRIRQRPPRLPRPRPRPMTEPRP,-0.0192
14,RRIRTRPPRLPRPRPRPDTKPRP,-0.212
15,RRIRPRPPRLPRPRPRPFWVPRP,0.0111
16,RRIRSRPPRLPRPRPRPNCYPRP,-0.0528
17,RRIRFRPPRLPRPRPRPQPLPRP,-0.0304
18,RRIRRRPPRLPRPRPRPPCLPRP,0.426
19,RRIRERPPRLPRPRPRPVMLPRP,0.055
20,RRIRSRPPRLPRPRPRPYVHPRP,-0.175
21,RRIRNRPPRLPRPRPRPYVQPRP,-0.0341
22,RRIRHRPPRLPRPRPRPMMKPRP,0.0118
23,RRIRDRPPRLPRPRPRPDMWPRP,0.0213
24,RRIRGRPPRLPRPRPRPSNLPRP,-0.113
25,RRIRIRPPRLPRPRPRPFANPRP,-0.0225
